Measurements taken from PMC4025573.

Columns and labels:
purified protein [1] = substrate: CC(=O)SCCNC(=O)CCNC(=O)[C@H](O)C(C)(C)COP(=O)(O)OP(=O)(O)OC[C@H]1O[C@@H](n2cnc3c(N)ncnc32)[C@H](O)[C@@H]1OP(=O)(O)O; assay: purified protein; conditions: pH 7.5; 25.0 °C
purified protein [2] = substrate: CC(C)C(=O)C(=O)O; assay: purified protein; conditions: pH 7.5; 25.0 °C

B1: MtIPMS (α-isopropylmalate synthase from Mycobacterium tuberculosis) (Mycobacterium tuberculosis H37Rv) (protein)
chain: MTTSESPDAYTESFGAHTIVKPAGPPRVGQPSWNPQRASSMPVNRYRPFAEEVEPIRLRNRTWPDRVIDRAPLWCAVDLRDGNQALIDPMSPARKRRMFDLLVRMGYKEIEVGFPSASQTDFDFVREIIEQGAIPDDVTIQVLTQCRPELIERTFQACSGAPRAIVHFYNSTSILQRRVVFRANRAEVQAIATDGARKCVEQAAKYPGTQWRFEYSPESYTGTELEYAKQVCDAVGEVIAPTPERPIIFNLPATVEMTTPNVYADSIEWMSRNLANRESVILSLHPHNDRGTAVAAAELGFAAGADRIEGCLFGNGERTGNVCLVTLGLNLFSRGVDPQIDFSNIDEIRRTVEYCNQLPVHERHPYGGDLVYTAFSGSHQDAINKGLDAMKLDADAADCDVDDMLWQVPYLPIDPRDVGRTYEAVIRVNSQSGKGGVAYIMKTDHGLSLPRRLQIEFSQVIQKIAEGTAGEGGEVSPKEMWDAFAEEYLAPVRPLERIRQHVDAADDDGGTTSITATVKINGVETEISGSGNGPLAAFVHALADVGFDVAVLDYYEHAMSAGDDAQAAAYVEASVTIASPAQPGEAGRHASDPVTIASPAQPGEAGRHASDPVTSKTVWGVGIAPSITTASLRAVVSAVNRAAR
B1 gave a Km (purified protein [1]) of 42 ± 12 µM, a kcat/Km (purified protein [1]) of 80000 ± 20000 M⁻¹ s⁻¹ and a Km (purified protein [2]) of 6.4 ± 1.4 µM. For the same protein, the kcat/Km (purified protein [2]) was 500000 ± 130000 M⁻¹ s⁻¹.
